{"source": "the supplement of paper PMC12042874", "note": "± gives the uncertainty stated by the source.", "data": [{"assay": "amyloid nucleation score (Sup35N fusion, yeast selection) (log enrichment); library NNK2; higher = more nucleation; inactive = no reads after selection", "how_it_was_run": "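Peptides of 20 random codons fused to Sup35N were expressed in psi-negative yeast, induced 24 hours with 100 μM copper sulfate, then grown 7 days at 30°C on medium lacking adenine and uracil. Input and output plasmid inserts were Illumina-sequenced. Nucleation score is the DiMSum log enrichment of output over input reads, centred on the mode score of non-aggregating sequences, excluding sequences with under 100 input reads. Random libraries had three technical output replicates.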", "values": [{"substance": "VCGMLTVIHWFLVIVVIDLV", "amyloid nucleation score": "0.863 ± 0.58"}, {"substance": "SQIWFTVTYGQYCYYIVSL", "amyloid nucleation score": "-0.33 ± 0.33"}, {"substance": "GRSFILTRLRFIFPVYTVC", "amyloid nucleation score": "inactive"}, {"substance": "YAIKMGFASQVSVEFRWLYK", "amyloid nucleation score": "-0.244 ± 0.28"}, {"substance": "FIRWSLWR", "amyloid nucleation score": "-0.012 ± 1.1"}, {"substance": "RTERSAFLLAPGNGLSRVRR", "amyloid nucleation score": "0.831 ± 0.4"}, {"substance": "RVTRG", "amyloid nucleation score": "inactive"}, {"substance": "LYERFIVENDCFQNHMKHEA", "amyloid nucleation score": "inactive"}, {"substance": "RCILASAGWAIVGKNCEAPQ", "amyloid nucleation score": "0.647 ± 0.26"}, {"substance": "CFIFKCKKCHLYPMDSVICQ", "amyloid nucleation score": "inactive"}, {"substance": "YYVDVLESISSGMFLYSQLV", "amyloid nucleation score": "-1.95 ± 0.54"}, {"substance": "CNYMPVPRPSMVMSFVSVTV", "amyloid nucleation score": "inactive"}, {"substance": "TCARFVGMEM", "amyloid nucleation score": "1.22 ± 0.27"}, {"substance": "WSRSLKDGALESYSSVRLLC", "amyloid nucleation score": "0.1 ± 0.28"}, {"substance": "LNEIERSSD", "amyloid nucleation score": "0.755 ± 0.3"}, {"substance": "FHIDTIRTVRLAWYTTEHWQ", "amyloid nucleation score": "5.34 ± 0.07"}, {"substance": "RYTWWWHSLFMSDSVAMNSA", "amyloid nucleation score": "-0.334 ± 0.42"}, {"substance": "MRGVTLYDYFDGIRIWRPLR", "amyloid nucleation score": "3.76 ± 0.12"}, {"substance": "SLSQMRLSVLSNKDHSIEL", "amyloid nucleation score": "7.964 ± 0.056"}, {"substance": "FVHIIESELYSEQTRESHLL", "amyloid nucleation score": "-0.586 ± 0.29"}, {"substance": "GYLSDMINFVSYCGRLSWSV", "amyloid nucleation score": "inactive"}, {"substance": "GQVLLFCMRTTYTMDEEFNS", "amyloid nucleation score": "0.082 ± 1"}, {"substance": "LGIVHGNNY", "amyloid nucleation score": "-1.14 ± 0.76"}, {"substance": "DYAIVSGVLLTQMQQLMCFV", "amyloid nucleation score": "0.466 ± 0.33"}, {"substance": "FHSRFSMRPDDLWSQNARVW", "amyloid nucleation score": "0.028 ± 0.79"}, {"substance": "FCTLCFSLCQ", "amyloid nucleation score": "1.82 ± 0.23"}, {"substance": "KFRDVFFPY", "amyloid nucleation score": "-0.76 ± 0.55"}, {"substance": "EASKGHISTVLWLGGVIS", "amyloid nucleation score": "-0.352 ± 0.65"}, {"substance": "GLTYKSDWSSFRSVYL", "amyloid nucleation score": "-0.771 ± 0.55"}, {"substance": "IGVRPCTMRC", "amyloid nucleation score": "0.23 ± 0.29"}, {"substance": "TVCWSLFDDCSFYFRCNAFE", "amyloid nucleation score": "8.42 ± 0.042"}, {"substance": "VHAPLLRRPNVLHTKLH", "amyloid nucleation score": "0.112 ± 1.1"}, {"substance": "RSVRSFCVWKVELFVRSEGM", "amyloid nucleation score": "2.01 ± 0.15"}, {"substance": "CNVAHRLRVRSVAK", "amyloid nucleation score": "0.789 ± 0.47"}, {"substance": "PNMGLVNCRRNFCCRLWRIC", "amyloid nucleation score": "-0.469 ± 1.1"}, {"substance": "CMFPSVCQPLTGMTVYGNST", "amyloid nucleation score": "-0.084 ± 0.48"}, {"substance": "LVSRCDDACGIQTGNMV", "amyloid nucleation score": "0.043 ± 0.33"}, {"substance": "QCAVDSPYDIRKLRR", "amyloid nucleation score": "-0.086 ± 0.39"}, {"substance": "LSMYDLYSMAR", "amyloid nucleation score": "inactive"}, {"substance": "VNKQNPGVYFLHRGFFVLSR", "amyloid nucleation score": "-1.57 ± 0.78"}, {"substance": "PLHHSLRTYVALGLR", "amyloid nucleation score": "0.306 ± 0.65"}, {"substance": "ASFFDTVNCSWFSGIFVMGF", "amyloid nucleation score": "1.59 ± 0.21"}, {"substance": "FHWYGTVVIYVYLLADVYRC", "amyloid nucleation score": "-0.153 ± 0.36"}, {"substance": "HTHGGFSHRYGSRWGQYLSW", "amyloid nucleation score": "5.53 ± 0.063"}, {"substance": "FYYSDDEFKCTVEIPVIYLI", "amyloid nucleation score": "-1.07 ± 0.5"}, {"substance": "RVSLTIYKC", "amyloid nucleation score": "3.24 ± 0.12"}, {"substance": "HCVLRSQT", "amyloid nucleation score": "2.38 ± 0.12"}, {"substance": "LSYSVNWWPRSGWSYYVNEF", "amyloid nucleation score": "-0.176 ± 1.1"}, {"substance": "SPWCPQLSTGGCSNLGSLRR", "amyloid nucleation score": "0.612 ± 0.31"}, {"substance": "MGLMNCSYSVKKQAAVIRTD", "amyloid nucleation score": "0.06 ± 0.17"}, {"substance": "DGKMNPVSAY", "amyloid nucleation score": "inactive"}, {"substance": "NDSRHTVIGYVMFKVYMYLK", "amyloid nucleation score": "inactive"}, {"substance": "NLNDLVVLELYSRFLLNWFE", "amyloid nucleation score": "-0.282 ± 0.46"}, {"substance": "SRLCFWSVGFNKTQQVEPVR", "amyloid nucleation score": "-1.33 ± 1.1"}, {"substance": "RNARDSQYDISGACGLFRDR", "amyloid nucleation score": "-0.287 ± 0.27"}, {"substance": "VISCQKPGDIKTYNRVGTTD", "amyloid nucleation score": "-0.35 ± 0.23"}, {"substance": "VGKLS", "amyloid nucleation score": "-0.528 ± 0.29"}, {"substance": "MSMFVGTYNSFFRQSLFSAF", "amyloid nucleation score": "-1.7 ± 0.78"}, {"substance": "QKGYN", "amyloid nucleation score": "inactive"}, {"substance": "VFLYYRTILMWVVSGLL", "amyloid nucleation score": "-0.449 ± 0.63"}, {"substance": "RCSCPANGFLMGQLAVMS", "amyloid nucleation score": "2.83 ± 0.12"}, {"substance": "FSPLC", "amyloid nucleation score": "1.83 ± 0.14"}, {"substance": "SMYLTETRLHCHDWSAAAWG", "amyloid nucleation score": "0.663 ± 0.21"}, {"substance": "NLALFCLVLMMEHQRFPCKA", "amyloid nucleation score": "4.49 ± 0.072"}, {"substance": "NLGSHTVEFSVMS", "amyloid nucleation score": "0.152 ± 0.77"}, {"substance": "NSFYRCYVRCIVSVRFLCCH", "amyloid nucleation score": "5.008 ± 0.035"}, {"substance": "CMKMSWFRTRSTYSIEALHS", "amyloid nucleation score": "0.037 ± 0.41"}, {"substance": "ERPWRRQRCAFKVSWVGADL", "amyloid nucleation score": "0.632 ± 0.19"}, {"substance": "LLFPLGISHAYMGRFFFRMV", "amyloid nucleation score": "-0.266 ± 1.1"}, {"substance": "IFEVRLPQELSSYSHFGGGC", "amyloid nucleation score": "0.706 ± 0.74"}, {"substance": "GYIYVNSGYRFTKLCMVFC", "amyloid nucleation score": "0.058 ± 0.79"}, {"substance": "NVFVCPAFQRTWVWMAVMSW", "amyloid nucleation score": "inactive"}, {"substance": "FYESELLSARQFSVYVSLMM", "amyloid nucleation score": "inactive"}, {"substance": "NTGSLWG", "amyloid nucleation score": "-1.41 ± 1.1"}, {"substance": "RMSVYNF", "amyloid nucleation score": "-0.177 ± 0.79"}, {"substance": "FGDWWSI", "amyloid nucleation score": "-1.1 ± 0.63"}, {"substance": "CVKDQSSRRRWLIYWAHSLS", "amyloid nucleation score": "-0.145 ± 0.76"}, {"substance": "EVSHAIYRWTLEKYCWNCHV", "amyloid nucleation score": "0.09 ± 0.24"}, {"substance": "YSVFNTSNFSALDPRFRRLF", "amyloid nucleation score": "0.201 ± 0.8"}, {"substance": "SIFCGPDVVNTGPKLG", "amyloid nucleation score": "0.751 ± 0.6"}, {"substance": "NNRQK", "amyloid nucleation score": "0.63 ± 0.43"}, {"substance": "ICSYVTVCVRLGFCKLNAMM", "amyloid nucleation score": "0.504 ± 0.51"}, {"substance": "KVARGVCYCRFSL", "amyloid nucleation score": "inactive"}, {"substance": "LRSYLNSHLLLEY", "amyloid nucleation score": "-1.44 ± 0.62"}, {"substance": "RLTLVNRAGCIVCNGQGCLQ", "amyloid nucleation score": "9.245 ± 0.069"}, {"substance": "FCLNATKAWFVLGVMYLDHW", "amyloid nucleation score": "-0.805 ± 0.35"}, {"substance": "TGHWMGPSDYRQRVCH", "amyloid nucleation score": "inactive"}, {"substance": "WALTHVSLYRFGER", "amyloid nucleation score": "4.32 ± 0.093"}, {"substance": "QFTCYTVYNGYWA", "amyloid nucleation score": "3.28 ± 0.15"}, {"substance": "SNRCLIIFLILC", "amyloid nucleation score": "5.92 ± 0.077"}, {"substance": "YPSCKGSMPVFYSFPGGENA", "amyloid nucleation score": "0.524 ± 0.5"}, {"substance": "LQRVF", "amyloid nucleation score": "1.19 ± 0.47"}, {"substance": "RVNFSGIDVVRLFHYCFYMK", "amyloid nucleation score": "-1.51 ± 0.76"}, {"substance": "NLLLFWSSHLSNECGSNSLG", "amyloid nucleation score": "4.66 ± 0.1"}, {"substance": "NTSHGFQSNPRGAYERILCV", "amyloid nucleation score": "-0.961 ± 0.63"}, {"substance": "MSISSALNKSSHTNSSMWNK", "amyloid nucleation score": "-0.277 ± 0.31"}, {"substance": "FLLRHSSCEVIGC", "amyloid nucleation score": "0.665 ± 0.36"}, {"substance": "NWPNPVSLMSRIDFRMV", "amyloid nucleation score": "-0.131 ± 0.31"}, {"substance": "LIYIICVSLFSRVVMVIANF", "amyloid nucleation score": "-1.25 ± 0.78"}, {"substance": "SFIWEYNMYYTGLGRITWMP", "amyloid nucleation score": "0.922 ± 0.34"}, {"substance": "HICPFGCGYYLGEDKDAWSG", "amyloid nucleation score": "-0.749 ± 0.56"}, {"substance": "SINSSV", "amyloid nucleation score": "-0.166 ± 1.1"}, {"substance": "SLADDSGNRT", "amyloid nucleation score": "-0.289 ± 0.43"}, {"substance": "RDDVRRVRPLGSVVQDDSDG", "amyloid nucleation score": "0.882 ± 0.18"}, {"substance": "KIKYYEAIDGACNSGWFDLG", "amyloid nucleation score": "2.92 ± 0.057"}, {"substance": "KSVKIVSSAMKGWIHSTYSR", "amyloid nucleation score": "-0.316 ± 0.28"}, {"substance": "STESARSKRGMSSPMNSIRA", "amyloid nucleation score": "0.029 ± 0.32"}, {"substance": "VLMASSLITVSICVPRTWAY", "amyloid nucleation score": "6.172 ± 0.041"}, {"substance": "ILSLRNR", "amyloid nucleation score": "-0.965 ± 1"}, {"substance": "QFFTLFDVSRRLHFNTWLRL", "amyloid nucleation score": "-1.14 ± 0.64"}, {"substance": "SLKSAFQMKVISYLVEWLVS", "amyloid nucleation score": "-0.6 ± 0.36"}, {"substance": "LASTDTWHCVGGEFHKSA", "amyloid nucleation score": "-0.571 ± 0.28"}, {"substance": "SNSCTPAGLETGNLK", "amyloid nucleation score": "inactive"}, {"substance": "KRTWFERLWSSSNRVLGCLC", "amyloid nucleation score": "4.27 ± 0.051"}, {"substance": "KCIIRTNKFFAFHVCKLTVN", "amyloid nucleation score": "0.498 ± 0.3"}, {"substance": "VIDTCGDVNRSRGQVLSGGV", "amyloid nucleation score": "0.293 ± 0.3"}, {"substance": "GDGRVYMVIGSGRGRV", "amyloid nucleation score": "0.506 ± 0.41"}, {"substance": "LMDQSTFNRVKYVGHWVVSG", "amyloid nucleation score": "1.74 ± 0.087"}, {"substance": "SPYHKANGHKNVARLYFRWR", "amyloid nucleation score": "0.731 ± 0.41"}, {"substance": "FDHMWLSGQVQWFLNYTTSL", "amyloid nucleation score": "inactive"}, {"substance": "HSLKNYSGYLLLRTNRCI", "amyloid nucleation score": "0.135 ± 0.65"}, {"substance": "MNQTCIRVDRLELYRYM", "amyloid nucleation score": "inactive"}, {"substance": "LFALLK", "amyloid nucleation score": "-0.005 ± 0.54"}, {"substance": "HKLTRRKWNCLRNWKLNLHQ", "amyloid nucleation score": "-0.953 ± 0.54"}, {"substance": "LHQTV", "amyloid nucleation score": "0.79 ± 0.57"}, {"substance": "SLCMHTAVFHS", "amyloid nucleation score": "0.092 ± 0.32"}]}]}
